Data from PMC3948114.

Biological target: HLA-B*27:05-KK10 tetramer
Experiment: tetramer staining of transfected HEK293 cells
Conditions: 0.2 μg tetramer; parent: est. 100; read off a plot

Substance	percent of parent
FLAG-tagged 3DL1*001 (from UniProt P43629) A167G	76 % of ·001
FLAG-tagged 3DL1*001 (from UniProt P43629) D230A	30 % of ·001
FLAG-tagged 3DL1*001 (from UniProt P43629) E282A	22 % of ·001
FLAG-tagged 3DL1*001 (from UniProt P43629) E282Q	44 % of ·001
FLAG-tagged 3DL1*001 (from UniProt P43629) L166A	180 % of ·001
FLAG-tagged 3DL1*001 (from UniProt P43629) L166V	20 % of ·001
FLAG-tagged 3DL1*001 (from UniProt P43629) M165A	52 % of ·001
FLAG-tagged 3DL1*001 (from UniProt P43629) P199A	10 % of ·001
FLAG-tagged 3DL1*001 (from UniProt P43629) Y200A	8 % of ·001
FLAG-tagged 3DL1*001 (from UniProt P43629) Y200F	36 % of ·001
